Results: the supplement of paper PMC10567573

B1: EPB41L3 (parent)
chain: SELGDYDPDECGSDYISEFRFAPN

Variants of: B1
Experiment: protein stability index of a GFP-peptide fusion (GPS, HEK-293T) (PSI 1-6); higher = more stable
Details: c terminus: a fixed tail appended
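Further: lentivirally expressed fusions sorted by FACS into six bins by GFP to DsRed ratio, PSI derived from sequencing read proportions per bin multiplied by bin number.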

Row | Variant | protein stability index
1 | SELGDYDPDECGEDYISEFRFAPN [S13E] | 2.59
2 | SELGDYDPDECGYDYISEFRFAPN [S13Y] | 1.91
3 | SELGDYDPDEIGSDYISEFRFAPN [C11I] | 2.2
4 | SELGDYDPDELGSDYISEFRFAPN [C11L] | 2.06
5 | SELGDYDPDEQGSDYISEFRFAPN [C11Q] | 2.49
6 | SELGDYDPDETGSDYISEFRFAPN [C11T] | 1.94
7 | SELGDYDPDEEGSDYISEFRFAPN [C11E] | 2.7
8 | SELGDYDPDEVGSDYISEFRFAPN [C11V] | 1.91
9 | SELGDYDPDEFGSDYISEFRFAPN [C11F] | 1.77
10 | SELGDYDPDEGGSDYISEFRFAPN [C11G] | 2.26
11 | SELGDYDPDESGSDYISEFRFAPN [C11S] | 2.51
12 | SELGDYDPDEYGSDYISEFRFAPN [C11Y] | 2.1
13 | SELGDYDPDEDGSDYISEFRFAPN [C11D] | 2.8
14 | SELGDYDPDEWGSDYISEFRFAPN [C11W] | 1.68
15 | SELGDYDPDEMGSDYISEFRFAPN [C11M] | 2
16 | SELGDYDPDEHGSDYISEFRFAPN [C11H] | 1.6
17 | SELGDYDPDERGSDYISEFRFAPN [C11R] | 2.01
18 | SELGDYDPDEKGSDYISEFRFAPN [C11K] | 2.26
19 | SELGDYDPDENGSDYISEFRFAPN [C11N] | 2.27
20 | SELGDYDPDEAGSDYISEFRFAPN [C11A] | 2.02
21 | SELGDYDPDEPGSDYISEFRFAPN [C11P] | 1.78
22 | SELGDYMPDECGSDYISEFRFAPN [D7M] | 1.93
23 | SELGDYIPDECGSDYISEFRFAPN [D7I] | 1.65
24 | SELGDYKPDECGSDYISEFRFAPN [D7K] | 1.14

Row | Variant | protein stability index
25 | SELGDYGPDECGSDYISEFRFAPN [D7G] | 2.29
26 | SELGDYLPDECGSDYISEFRFAPN [D7L] | 1.56
27 | SELGDYNPDECGSDYISEFRFAPN [D7N] | 1.68
28 | SELGDYPPDECGSDYISEFRFAPN [D7P] | 2.31
29 | SELGDYFPDECGSDYISEFRFAPN [D7F] | 2.29
30 | SELGDYQPDECGSDYISEFRFAPN [D7Q] | 1.37
31 | SELGDYAPDECGSDYISEFRFAPN [D7A] | 1.91
32 | SELGDYWPDECGSDYISEFRFAPN [D7W] | 2.1
33 | SELGDYCPDECGSDYISEFRFAPN [D7C] | 1.71
34 | SELGDYHPDECGSDYISEFRFAPN [D7H] | 2.14
35 | SELGDYYPDECGSDYISEFRFAPN [D7Y] | 1.7
36 | SELGDYEPDECGSDYISEFRFAPN [D7E] | 3.01
37 | SELGDYSPDECGSDYISEFRFAPN [D7S] | 1.47
38 | SELGDYTPDECGSDYISEFRFAPN [D7T] | 1.57
39 | SELGDYVPDECGSDYISEFRFAPN [D7V] | 1.61
40 | SELGDYRPDECGSDYISEFRFAPN [D7R] | 2.44
41 | SELGDLDPDECGSDYISEFRFAPN [Y6L] | 2.19
42 | SELGDPDPDECGSDYISEFRFAPN [Y6P] | 2.13
43 | SELGDEDPDECGSDYISEFRFAPN [Y6E] | 2.37
44 | SELGDCDPDECGSDYISEFRFAPN [Y6C] | 2.27
45 | SELGDDDPDECGSDYISEFRFAPN [Y6D] | 2.49
46 | SELGDGDPDECGSDYISEFRFAPN [Y6G] | 2.48
47 | SELGDFDPDECGSDYISEFRFAPN [Y6F] | 2.01
48 | SELGDWDPDECGSDYISEFRFAPN [Y6W] | 2.31

Row | Variant | protein stability index
49 | SELGDNDPDECGSDYISEFRFAPN [Y6N] | 2.15
50 | SELGDQDPDECGSDYISEFRFAPN [Y6Q] | 2.11
51 | SELGDVDPDECGSDYISEFRFAPN [Y6V] | 2.1
52 | SELGDADPDECGSDYISEFRFAPN [Y6A] | 2.46
53 | SELGDIDPDECGSDYISEFRFAPN [Y6I] | 2.06
54 | SELGDRDPDECGSDYISEFRFAPN [Y6R] | 1.84
55 | SELGDTDPDECGSDYISEFRFAPN [Y6T] | 1.97
56 | SELGDSDPDECGSDYISEFRFAPN [Y6S] | 2.11
57 | SELGDKDPDECGSDYISEFRFAPN [Y6K] | 2.17
58 | SELGDHDPDECGSDYISEFRFAPN [Y6H] | 1.73
59 | SELGDMDPDECGSDYISEFRFAPN [Y6M] | 1.98
60 | SELGDYDPDECGSDGISEFRFAPN [Y15G] | 3.75
61 | SELGDYDPDECGSDRISEFRFAPN [Y15R] | 2.74
62 | SELGDYDPDECGSDHISEFRFAPN [Y15H] | 2.87
63 | SELGDYDPDECGSDEISEFRFAPN [Y15E] | 4.13
64 | SELGDYDPDECGSDKISEFRFAPN [Y15K] | 2.77
65 | SELGDYDPDECGSDSISEFRFAPN [Y15S] | 3.43
66 | SELGDYDPDECGSDQISEFRFAPN [Y15Q] | 3.05
67 | SELGDYDPDECGSDPISEFRFAPN [Y15P] | 1.84
68 | SELGDYDPDECGSDFISEFRFAPN [Y15F] | 2.18
69 | SELGDYDPDECGSDIISEFRFAPN [Y15I] | 2.5
70 | SELGDYDPDECGSDCISEFRFAPN [Y15C] | 2.84
71 | SELGDYDPDECGSDAISEFRFAPN [Y15A] | 2.46
72 | SELGDYDPDECGSDLISEFRFAPN [Y15L] | 2.35

Row | Variant | protein stability index
73 | SELGDYDPDECGSDNISEFRFAPN [Y15N] | 4.06
74 | SELGDYDPDECGSDDISEFRFAPN [Y15D] | 4.23
75 | SELGDYDPDECGSDMISEFRFAPN [Y15M] | 2.91
76 | SELGDYDPDLCGSDYISEFRFAPN [E10L] | 1.61
77 | SELGDYDPDPCGSDYISEFRFAPN [E10P] | 2.04
78 | SELGDYDPDFCGSDYISEFRFAPN [E10F] | 1.55
79 | SELGDYDPDQCGSDYISEFRFAPN [E10Q] | 1.84
80 | SELGDYDPDGCGSDYISEFRFAPN [E10G] | 1.78
81 | SELGDYDPDACGSDYISEFRFAPN [E10A] | 1.88
82 | SELGDYDPDSCGSDYISEFRFAPN [E10S] | 1.85
83 | SELGDYDPDNCGSDYISEFRFAPN [E10N] | 1.9
84 | SELGDYDPDVCGSDYISEFRFAPN [E10V] | 2.06
85 | SELGDYDPDTCGSDYISEFRFAPN [E10T] | 1.85
86 | SELGDYDPDICGSDYISEFRFAPN [E10I] | 1.45
87 | SELGDYDPDCCGSDYISEFRFAPN [E10C] | 2.38
88 | SELGDYDPDRCGSDYISEFRFAPN [E10R] | 2.26
89 | SELGDYDPDMCGSDYISEFRFAPN [E10M] | 1.75
90 | SELGDYDPDKCGSDYISEFRFAPN [E10K] | 1.85
91 | SELGDYDPDWCGSDYISEFRFAPN [E10W] | 1.91
92 | SELGDYDPDYCGSDYISEFRFAPN [E10Y] | 1.55
93 | SELGDYDPDDCGSDYISEFRFAPN [E10D] | 1.81
94 | SELGDYDPDHCGSDYISEFRFAPN [E10H] | 1.5
